Experimental findings from patent US8420776 (US Dept. of Health and Human Services, dated 2013) are described below.

Test [1] has as its target T1, lysine 48-linked (K48) tetra-ubiquitin (UniProt P0CG48 1-76, four ubiquitins joined by lysine 48 isopeptide links).
T1 construct: the monomer is its first 76 residues
Description: GST pull-down, anti-ubiquitin immunoblot. (In general: In western blotting, separated proteins are transferred to a membrane and probed.)

Test [2] deals with UbcH5B, in vitro translated and labelled with 35S-methionine (human, UniProt P62837 1-147). Description: GST pull-down, E2 in vitro translated in wheat germ.
For test [3], the target named is T2, Ube2G2/MmUbc7, in vitro translated and labelled with 35S-methionine (human (100% identical to mouse MmUbc7), UniProt P60604 1-165, 35S-methionine label).
T2 construct: Translated in wheat germ or rabbit reticulocyte lysate; also called in vitro translated Ube2G2
T2 sequence: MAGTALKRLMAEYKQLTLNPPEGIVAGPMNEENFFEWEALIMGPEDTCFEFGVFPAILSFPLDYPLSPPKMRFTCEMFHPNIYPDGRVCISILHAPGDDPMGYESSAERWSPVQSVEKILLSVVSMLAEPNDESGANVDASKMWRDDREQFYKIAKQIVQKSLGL
In words: GST pull-down, E2 translated in wheat germ and labelled with 35S-Met, equal counts.

The target in test [4] is T3, yeast Ubc7p, in vitro translated and labelled with 35S-methionine (yeast, UniProt Q02159 1-165, 35S-methionine label).
T3 sequence (looked up): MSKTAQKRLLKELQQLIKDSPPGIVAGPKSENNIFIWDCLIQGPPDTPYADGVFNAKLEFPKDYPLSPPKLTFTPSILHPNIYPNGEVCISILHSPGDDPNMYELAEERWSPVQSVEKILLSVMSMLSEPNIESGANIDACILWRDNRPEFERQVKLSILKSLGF
The test is described as above.

Test [5] concerns the target T4, gp78 truncated after amino acid 576 of SEQ ID NO:2 (gp78576) (human, UniProt Q9UKV5 1-576).
T4 construct: C-terminal truncation after the indicated amino acid
In words: anti-Myc immunoprecipitation from co-transfected cells, anti-gp78 immunoblot.

Test [6] deals with T5, gp78 truncated after amino acid 595 of SEQ ID NO:2 (gp78595) (human, UniProt Q9UKV5 1-595).
T5 construct: C-terminal truncation after the indicated amino acid
The description is as above.

In test [7] the target is T6, gp78 truncated after residue 611 of SEQ ID NO:2 (gp78611) (human, UniProt Q9UKV5 1-611).
T6 construct: C-terminal truncation after the indicated amino acid
The test is described as above.

The target in test [8] is N-terminal GFP fusion of gp78 amino acids 579-600 of SEQ ID NO:2 (human, UniProt P42212 1-238 = GFP). In words: anti-Myc immunoprecipitation from cells co-transfected with GFP fusion and Myc-Ube2G2, anti-GFP immunoblot.
Test [9] deals with T7, N-terminal GFP fusion of gp78 residues 574-611 (GFP-574-611) (human, UniProt P42212 1-238 = GFP).
T7 construct: the vector encodes the enhanced variant; also called G2BD
In words: co-immunoprecipitation with GFP fusion from HEK 293T cells.

Test [10] addresses N-terminal GFP fusion of gp78 residues 574-611 with the E2-m2 mutation (GFP-574-611E2-m2) (human, UniProt P42212 1-238 = GFP). Description: anti-GFP immunoprecipitation from HEK 293T cells, immunoblot for endogenous Ube2G2.

B1: GST fusion of the cytoplasmic domain of yeast Cue1p (Cue1p 24-203) (other, UniProt P38428 24-203, looked up)
chain: QSNQHPSAQRLSATGVNAHGRPQGSTQNALRRTGRVNGGHPVTTQMVETVQNLAPNLHPEQIRYSLENTGSVEETVERYLRGDEFSFPPGFEPSRAPMGANAAVDNNAAGGGEFNDPRKKNMICAENLLDKFHVDLNEDMSNLSFKDLDIEERKRLLVWQARKNLETKLQSDKDLQSLLT
notes: range 24-203; also called GST-Cue1p 24-203; not shown: glutathione S-transferase (GST) fusion partner, N-terminal (pGEX4T-1)
With B1, the values for the binding result in test [1] and in test [2] were “no binding (tested: 1 ug K48 tetra-ubiquitin)” and “no binding”, respectively. The “amount bound (% of input)” value in test [3] and in test [4] was ~10 % of input each time.

B2: Myc-Ube2G2, co-expressed in HEK 293T cells (enzyme, not shown: small tags and cut ends)
chain: T2 sequence
notes: Plasmid described in Tiwari and Weissman, 2001; also called Myc-MmUbc7; myc-tagged MmUbc7/Ube2G2
B2: the binding result in [5] is on record as “no binding”; in test [6], “no binding”; in [7] it was “binds”; in test [8], “binds”.

B3: endogenous Ube2G2 of HEK 293T cells (enzyme)
chain: AGTALKRLMAEYKQLTLNPPEGIVAGPMNEENFFEWEALIMGPEDTCFEFGVFPAILSFPLDYPLSPPKMRFTCEMFHPNIYPDGRVCISILHAPGDDPMGYESSAERWSPVQSVEKILLSVVSMLAEPNDESGANVDASKMWRDDREQFYKIAKQIVQKSLGL
notes: Endogenous protein in cell lysate, detected with rabbit antiserum to residues 148-165; also called endogenous E2
Consider B3, for which the binding result in test [9] is given as “binds”; in [10], “no binding”.
